The values that follow come from US20030207791A1, “Materials and methods relating to the treatment of leukaemias” (priority 2000, published 2003).

Assay [1] has as its system U937 cells expressing PML-RAR under the control of an inducible promoter. Put plainly: Differentiation (CD14) of U937 cells with inducible PML-RAR treated with vitamin D and TGFβ. The class given is cell-based. The conditions noted are these: PML-RAR induced, control infection (GFP alone), vitamin D and TGFβ. An excerpt:
The cells were either uninduced (ctr column), or induced to express PML-RAR (PML-RAR column). Cells were transduced with retroviral vectors encoding the coiled coil of PML (RBCC) and GFP as a marker, or with retroviral vectors encoding GFP alone as a control (control). […] In cells expressing the coiled coil of PML (gated in the cytofluorimetric analysis based on the positivity for the GFP marker), PML-RAR was unable to block efficiently differentiation (from 90% to 70%). Levels of expression of PML-RAR were unchanged by expressing the coiled coil region of PML.
RAR oligomerization through the coiled coil region of PML is required for its leukemogenic activity, and deletion of the PML coiled coil is sufficient to lead to loss of oncogenic potential (Minucci et al., 2000). Small molecule compounds able to disrupt PML-RAR oligomers would therefore be able to revert the leukemic phenotype.

The test system of assay [2] is RARE-G5-TATA reporter (GAL4-VP16 driven transcription). Nature of the assay: Transcriptional repression of GAL4-VP16 activation, RARE-G5-TATA reporter, transfected HeLa cells. The class given is cell-based. The method, then: FIG. 2. Role of the coiled coil of PML in the altered transcriptional properties of PML-RAR (A): Transcriptional repression by RAR and fusion proteins. Hela cells were co-transfected with the RARE-G5-TATA reporter in the absence (C) or presence of increasing amounts (50, 100, 250, 1000 ng) of the indicated expression vectors and then harvested 48 hours after transfection. Levels of expression of RAR and fusion proteins after transfection are shown in (C). (B) RARE and NCoR dependent transcriptional repression by RAR and fusion proteins. Hela cells were co-transfected with the RARE-G5-TATA or the G5-TATA, reporters and 1 μg of control expression vector (C), RAR (R), PML-RAR (P/R) and their respective AHT derivatives, as indicated. (D) RA sensitivity of RAR and fusion proteins. Cells were co-transfected with 500 ng of the indicated expression vectors. 24 hours after transfection, RA was added at the following concentrations: 1, 10, 100 nM, 1, 10 μM, and cells were harvested after additional 24 hours.
To test this hypothesis, the inventors devised an artificial, reporter system to measure transcriptional repression by RAR and chimeric proteins. The RARE-G5-TATA reporter construct has five GAL4 response elements fused to a minimal promoter region: upstream of the GAL4 sites, a RA responsive element (RARE) allows binding of RAR (or fusion proteins). […] RAR over-expression led to decrease of GAL4-VP16 activation, with 30-40% repression observed with the maximal amount of co-transfected RAR expression vector (1 μg, FIG. 2A), while it exerted no effect on the GAL4-VP16-mediated activation of a cognate promoter lacking the RARE (FIG. 2B). A RAR construct carrying the AHT mutation, which abrogates NCoR binding (Horlein et al., 1995), was unable to prevent activation of the RARE-G5-TATA promoter by GAL4-VP16 (FIG. 2B).
Next, the inventors tested the transcriptional regulatory functions of PML-RAR (or derivatives). […] At the maximal concentration tested (1 μg), the inventors observed 80-90% repression with PML-RAR and 30-40% with RAR (FIG. 2A).
Transient transfection of HeLa, NIH 3T3, SAOS and C33A cells was performed by calcium phosphate as described (Lillie and Green, 1989; Minucci et al., 1994). p53-/- MEFs were transiently transfected by lipofection as described (Pearson et al., 2000). Light units were normalized to expression of a co-transfected β-galactosidase expression plasmid. Results are presented as the mean+standard deviations of at least three independent experiments.

B1: PML-RAR: leukaemia-associated chimeric transcription factor, fusion of PML and RAR (protein)
chain: MEPAPARSPRPQQDPARPQEPTMPPPETPSEGRQPSPSPSPTERAPASEEEFQFLRCQQCQAEAKCPKLLPCLHTLCSGCLEASGMQCPICQAPWPLGADTPALDNVFFESLQRRLSVYRQIVDAQAVCTRCKESADFWCFECEQLLCAKCFEAHQWFLKHEARPLAELRNQSVREFLDGTRKTNNIFCSNPNHRTPTLTSIYCRGCSKPLCCSCALLDSSHSELKCDISAEIQQRQEELDAMTQALQEQDSAFGAVHAQMHAAVGQLGRARAETEELIRERVRQVVAHVRAQERELLEAVDARYQRDYEEMASRLGRLDAVLQRIRTGSALVQRMKCYASDQEVLDMHGFLRQALCRLRQEEPQSLQAAVRTDGFDEFKVRLQDLSSCITQGKDAAVSKKASPEAASTPRDPIDVDLPEEAERVKAQVQALGLAEAQPMAVVQSVPGAHPVPVYAFSIKGPSYGEDVSNTTTAQKRKCSQTQCPRKVIKMESEEGKEARLARSSPEQPRPSTSKAVSPPHLDGPPSPRSPVIGSEVFLPNSNHVASGAGEAIETQSSSSEEIVPSPPSPPPLPRIYKPCFVCQDKSSGYHYGVSACEGCKGFFRRSIQKNMVYTCHRDKNCIINKVTRNRCQYCRLQKCFEVGMSKESVRNDRNKKKKEVPKPECSESYTLTPEVGELIEKVRKAHQETFPALCQLGKYTTNNSSEQRVSLDIDLWDKFSELSTKCIIKTVEFAKQLPGFTTLTIADQITLLKAACLDILILRICTRYTPEQDTMTFSDGLTLNRTQMHNAGFGPLTDLVFAFANQLLPLEMDDAETGLLSAICLICGDRQDLEQPDRVDMLQEPLLEALKVYVRKRRPSRPHMFPKMLMKITDLRSISAKGAERVITLKMEIPGSMPPLIQEMLENSEGLDTLSGQPGGGGRDGGGLAPPPGSCSPSLSPSSNRSSPATHSP
For B1, the “differentiated, CD14+ cells” value in assay [1] is “about 30%”. Further, the “repression of GAL4-VP16 activation” value in assay [2] (maximal amount of expression vector, 1 μg) is on record as 80-90%.

B2: p53-RAR: RAR fused C-terminally to the tetramerization domain present in p53 (protein)
chain: GEYFTLQIRGRERFEMFRELNEALELKDAQAGMASNSSSCPTPGGGHLNGYPVPPYAFFFPPMLGGLSPPGALTTLQHQLPVSGYSTPSPATIETQSSSSEEIVPSPPSPPPLPRIYKPCFVCQDKSSGYHYGVSACEGCKGFFRRSIQKNMVYTCHRDKNCIINKVTRNRCQYCRLQKCFEVGMSKESVRNDRNKKKKEVPKPECSESYTLTPEVGELIEKVRKAHQETFPALCQLGKYTTNNSSEQRVSLDIDLWDKFSELSTKCIIKTVEFAKQLPGFTTLTIADQITLLKAACLDILILRICTRYTPEQDTMTFSDGLTLNRTQMHNAGFGPLTDLVFAFANQLLPLEMDDAETGLLSAICLICGDRQDLEQPDRVDMLQEPLLEALKVYVRKRRPSRPHMFPKMLMKITDLRSISAKGAERVITLKMEIPGSMPPLIQEMLENSEGLDTLSGQPGGGGRDGGGLAPPPGSCSPSLSPSSNRSSPATHSP
Regarding B2, the “capacity to repress GAL4-VP16 driven transcription” value in assay [2] is reported as “as strongly as PML-RAR”.
